In patent US20170275380A1 (ROCHE DIAGNOSTICS OPERATIONS, published 2017):
No end group written: not given here.

Experiments:
[1] = target: T1, human HER2(1223-1236)-Bi-PEG-amide (human, also: Bi-PEG (biotin-PEG), place not given here); experiment: SPR kinetic screening (Biacore A100); mAb captured by anti-mouse IgG Fc; peptide grafted on streptavidin as analyte; Langmuir model; anti-HER2 antibody, HER2 peptide
T1 construct: Injected as analyte singly grafted on streptavidin; also called HER2 peptide
T1 peptide: WDQDPPERGAPPST-NH2
Protocol: (§1) A BIACORE™ A100 instrument under control of the software version V1.1 is used. A BIACORE™ CMS chip is mounted into the instrument and is hydrodynamically addressed conditioned according to the manufacturer's instructions. As a running buffer an HBS-EP buffer is used (10 mM HEPES (pH 7.4), 150 mM NaCl, 1 mM EDTA, 0.05% (w/v) P20). A polyclonal rabbit anti-mouse IgG Fc capture antibody is immobilized at 30 μg/ml in 10 mM sodium acetate buffer (pH 4.5) to spots 1, 2, 4 and 5 in flow cells 1, 2, 3 and 4 at 10,000 RU. The antibody is covalently immobilized via NHS/EDC chemistry. The sensor is deactivated thereafter with a 1 M ethanolamine solution. Spots 1 and 5 are used for the determination and spots 2 and 4 are used as reference. Prior to application to the sensor chip the hybridoma supernatants containing mAbs are diluted 1:2 in HBS-EP buffer. The diluted solution is applied at a flow rate of 30 μl/min for 1 min. Immediately thereafter the analyte, human HER3(1242-1267)-Bi-PEG-amide (SEQ ID NO:26) or human HER2(1223-1236)-Bi-PEG-amide (SEQ ID NO:25), singly grafted on streptavidin, is injected at a flow rate of 30 μl/min for 2 min. Thereafter, the signal is recorded for 5 min dissociation time. The sensor is regenerated by injecting a 10 mM glycine-HCl solution (pH 1.7) for 2 min, at a flow rate of 30 μl/min.

[2] = target: T2, human HER3(1242-1267)-Bi-PEG-amide (human, Bi-PEG (biotin-PEG); C-terminal amide); experiment: SPR kinetic screening (Biacore A100); mAb captured by anti-mouse IgG Fc; peptide grafted on streptavidin as analyte; Langmuir model; anti-HER3 antibody, HER3 peptide
T2 construct: Injected as analyte singly grafted on streptavidin; also called HER3 peptide
T2 peptide: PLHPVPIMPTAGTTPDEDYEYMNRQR
Protocol: as §1

[3] = target: Bi-InsulinR(1356-1382)p1361 (phosphotyrosine at 1361; biotin); experiment: SPR (Biacore 2000, 25 C); hybridoma supernatant 1:2 over biotinylated peptide on SA chip
Sequence of Bi-InsulinR(1356-1382)p1361 (phosphotyrosine at 1361; biotin) (peptide, as listed by the source): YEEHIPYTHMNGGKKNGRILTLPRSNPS
Protocol: (§2) Further, surface plasmon resonance was used to determine the antigen specificity. A BIACORE™ 2000 instrument (GE Healthcare) was used with a BIACORE™ SA sensor mounted into the system at T=25° C. and was preconditioned at 100 μl/min with 3×1 min injection of 1 M NaCl in 50 mM NaOH and 1 min 10 mM HCl. The system buffer was HBS-ET (10 mM HEPES pH 7.4, 150 mM NaCl, 1 mM EDTA, 0.05% TWEEN® 20). The sample buffer was the system buffer+1 mg/ml CMD (Carboxymethyldextrane, Sigma).
(§3) Subsequently, biotinylated peptides were captured on the SA surface in the respective flow cells. The flow cells finally were saturated with 2 μM d-biotin. […] Flow cell 1 served as a reference. A blank buffer injection was used instead of an antigen injection to double reference the data by buffer signal subtraction. The data was evaluated according to the BIACORE™ evaluation software 1.1.1. The signal height was measured at the end of the injection time, Binding Late (RU).

[4] = target: T3, IGF-1R(1340-1366); Glu(Bi-PEG-1340]amid (PEG-linker with biotin bound via glutamic acid corresponding to position 1340; C-terminal amide); experiment: as above
T3 construct: also called IGF-1R peptide (biotinylated, non-phosphorylated); IGF-1R(1340-1366)PEG-Bi
T3 peptide: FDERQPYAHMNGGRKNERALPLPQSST
Protocol: as §2, §3

[5] = target: T4, IGF-1R(1340-1366)[1346-pTyr; Glu(Bi-PEG-1340]amid (phosphotyrosine at 1346; PEG-linker with biotin bound via glutamic acid corresponding to position 1340; C-terminal amide); experiment: as above
T4 construct: also called pIGF-1R peptide (biotinylated); phosphorylated IGF-1R peptide
T4 peptide: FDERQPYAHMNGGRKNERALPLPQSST
Protocol: as §2, §3

B1: antibody 4.1.43 (antibody, V domains shown)
VH: EVQLQQSGPVLVKPGASVKMSCRPSGYTFTDYNMHWVKQSHEKSLEWIGYINPKNGIISYNQKFKDKATLTVNKSSRTAYMELRSLTSEDSAVYFCAGDYWGQGTSVTVSS
VL: DVVMTQTPLSLPVSLGDQASISCRSSQSLVHSNGNTYLHWYLQKPGQSPKLLISKVSNRFSGVPDRFSGSGSGTDFTLKISRVEAEDLGVYFCSQSIHLPWTFGGGTKLEIK
notes: Mouse monoclonal antibody, tested from hybridoma supernatant captured by anti-mouse IgG Fc; also called selected antibody directed against HER2
- koff [1]: 0.000963 s⁻¹

B2: antibody 7.2.32 (antibody, V domains shown)
VH: EVQLQESGGGLVQPKGSLQLSCAASGFTFNTYAMHWVRQAPGKGLEWVARIRTESSDYATDYADSVKDRFIISRDDSQNMLYLQMNNLKSEDTAIYYCVRSSGFDYWGQGTTLTVSS
VL: DIQMTQSPSLPVSLGDQASISCRSSQSLVHDNGNTYLHWFLQKPGQSPKLLIYKVSNRFSGVPDRFGGSGSGTDFTLKISGVEAEDLGVYFCSQGTHVPTFGGGTKLEIK
notes: Mouse monoclonal antibody, tested from hybridoma supernatant captured by anti-mouse IgG Fc; also called selected antibody directed against HER3
- koff [2]: 0.0023 s⁻¹

B3: mAb 1.4.168 (antibody, V domains shown)
VH: DVKLVESGGGLVKPGGSLKLSCAASGFTFSDYPMSWVRQTPEKRLEWVATITTGGTYTYYPDSIKGRFTISRDNAKNTLYLQMGSLQSEDAAMYYCTRVKTDLWWGLAYWGQGTLVTVSA
VL: QLVLTQSSSASFSLGASAKLTCTLSSQHSTYTIEWYQQQPLKPPKYVMELKKDGSHTTGDGIPDRFSGSSSGADRYLSISNIQPEDESIYICGVGDTIKEQFVYVFGGGTKVTVLG
notes: Murine monoclonal IgG from hybridoma; also called M-1.4.168-IgG; M-1.004.168-IgG
- Binding Late (RU) [3]: 0 RU
- Binding Late (RU) [4]: 199 RU
- Binding Late (RU) [5]: 265 RU
